# Laboratory results taken from patent US20090041767A1, “PHARMACEUTICAL COMBINATIONS” (priority 2007, published 2009).
# Target: mouse α5β1 (Mus musculus, UniProt P09055+P11688)
# Test: antibody binding to mouse α5β1 integrin
# mouse α5β1, sequence (P11688 45-1053): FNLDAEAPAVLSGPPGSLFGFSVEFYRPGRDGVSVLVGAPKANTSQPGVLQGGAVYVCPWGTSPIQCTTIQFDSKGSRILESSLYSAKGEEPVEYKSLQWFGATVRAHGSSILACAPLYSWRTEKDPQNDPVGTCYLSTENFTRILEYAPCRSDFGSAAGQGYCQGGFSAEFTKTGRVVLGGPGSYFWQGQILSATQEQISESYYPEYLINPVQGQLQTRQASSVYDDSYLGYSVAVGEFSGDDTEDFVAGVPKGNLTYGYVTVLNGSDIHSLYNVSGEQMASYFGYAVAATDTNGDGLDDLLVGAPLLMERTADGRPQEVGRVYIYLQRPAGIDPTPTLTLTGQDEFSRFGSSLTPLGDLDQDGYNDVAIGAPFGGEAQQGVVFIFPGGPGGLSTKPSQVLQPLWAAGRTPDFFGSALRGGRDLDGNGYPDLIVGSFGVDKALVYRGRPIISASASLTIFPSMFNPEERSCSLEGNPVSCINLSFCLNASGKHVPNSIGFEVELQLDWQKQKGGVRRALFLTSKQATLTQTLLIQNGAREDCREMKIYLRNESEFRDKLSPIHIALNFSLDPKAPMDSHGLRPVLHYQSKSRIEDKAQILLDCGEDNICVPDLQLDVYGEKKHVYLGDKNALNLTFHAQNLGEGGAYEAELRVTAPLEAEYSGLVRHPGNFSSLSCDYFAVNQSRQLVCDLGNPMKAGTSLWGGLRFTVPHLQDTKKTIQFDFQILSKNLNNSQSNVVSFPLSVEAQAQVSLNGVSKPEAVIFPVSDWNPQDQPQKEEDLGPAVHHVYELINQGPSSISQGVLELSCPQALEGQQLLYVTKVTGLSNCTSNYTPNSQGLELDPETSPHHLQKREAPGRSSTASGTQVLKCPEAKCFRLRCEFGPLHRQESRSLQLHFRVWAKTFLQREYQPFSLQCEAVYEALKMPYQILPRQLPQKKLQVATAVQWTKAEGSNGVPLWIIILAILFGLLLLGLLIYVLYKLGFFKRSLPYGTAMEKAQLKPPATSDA
# mouse α5β1, sequence (P09055 21-798): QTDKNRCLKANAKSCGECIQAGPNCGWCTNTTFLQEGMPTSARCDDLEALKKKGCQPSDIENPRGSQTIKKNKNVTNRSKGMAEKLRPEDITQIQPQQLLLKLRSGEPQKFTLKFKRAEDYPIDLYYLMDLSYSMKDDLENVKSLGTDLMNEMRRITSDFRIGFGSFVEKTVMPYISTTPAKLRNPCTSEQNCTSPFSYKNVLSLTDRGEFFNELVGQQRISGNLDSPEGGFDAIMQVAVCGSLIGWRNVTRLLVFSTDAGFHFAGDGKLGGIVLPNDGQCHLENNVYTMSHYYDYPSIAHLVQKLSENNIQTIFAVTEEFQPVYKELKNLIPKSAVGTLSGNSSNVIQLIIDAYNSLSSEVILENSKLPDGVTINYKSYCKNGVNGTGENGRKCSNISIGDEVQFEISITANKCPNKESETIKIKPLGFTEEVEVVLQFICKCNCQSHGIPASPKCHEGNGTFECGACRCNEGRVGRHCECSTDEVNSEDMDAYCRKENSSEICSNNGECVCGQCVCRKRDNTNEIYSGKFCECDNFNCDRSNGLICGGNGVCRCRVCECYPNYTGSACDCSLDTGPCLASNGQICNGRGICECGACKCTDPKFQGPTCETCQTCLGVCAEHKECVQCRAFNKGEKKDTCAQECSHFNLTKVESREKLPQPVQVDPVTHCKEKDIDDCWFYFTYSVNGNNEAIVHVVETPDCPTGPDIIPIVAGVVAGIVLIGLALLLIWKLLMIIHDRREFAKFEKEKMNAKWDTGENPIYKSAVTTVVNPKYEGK
molecule,measurement,value
"339.1: monoclonal antibody that targets murine α5β1; volociximab surrogate; VH SEQ ID NO: 22, VL SEQ ID NO: 23 (antibody, V domains shown, heavy chain variable region for mouse volociximab analog; light chain variable region for mouse volociximab analog) VH: MDIRLSLAFLVLFIKGVQCEVYLVESGGGSVQPGRSTKLSCAASEFTFSTSSMAWVRQAPTKGLEWVATISSSGEYTYYRDSVKGRFTISRDNAKSTLYLQMNSLRSEDTATYYCTRGVLYWGQGVMVTVSS VL: MAPVQLLGLLLLCLPAMRCDIQMTQSPSLLSASVGDRVTLNCKSSQNIYKNLNWYQQKLGEPPKLLIHYTDNLQAGIPSRFSGSGSGTDYTLTISSLHPDDVATYFCFQYNRGPTFGAGTKLELK",binding to mouse α5β1,binds mouse α5β1 with high affinity
